# From patent US20170248602A1 (ALLERGAN, published 2017)
# B1: α-SNAP-25 mouse monoclonal antibody 1D3B8 (antibody, V domains shown)
# VH: QVKLQESGAELVKPGASVKISCKASGYIFTDHALHWVRQKPEQGLEWIGYIFPGNGNIEYNEKFKGKATLTADKSSSTAYMQLNSLTSGDSAMYFCKKMDYWGQGTTVTVSS
# VL: DVLMTQTPLSLPVSLGDQASISCRSSQSIVHSNGNTYLEWYLQKPGQSPKLLIYKVSNRFSGVPDRFSGSGSGTDFTLKISRVEAEDLGVYYCFQGSHVPPTFGAGTKLELKR
# B2: α-SNAP-25 mouse monoclonal antibody 2E2A6 (antibody, V domains shown)
# VH: QVQLQQSDAELVKPGASVKISCRASGYTFTDHSIHWVKQQPGQGLEWIGYIFPGNGNIEYNDKFKGKATLTADKSSGTAYMQLNSLTSEDSAVYFCKRMGYWGQGTSVTVSS
# VL: DVLMTQTPLTLSVTIGQPASISCKSSQSLLYTNGKTYLTWLFQRPGQSPKRLIYLVSELDSGVPDRFSGSGSGTDFTLEITRVEAEDLGVYYCLQSAHFPFTFGSGTKLEIKR
# B3: α-SNAP-25 mouse monoclonal antibody 3C1A5 (antibody, V domains shown)
# VH: QVKLQESGAELVKPGASVKISCKASGYTFTDHSIHWVKQKPGQGLEWIGYLFPGNGNFEYNEKFKGKATLTADKSSSTVYMYLNSLTSEDSAVYFCKRMGYWGQGTTVTVSS
# VL: DVVMTQTPLTLSVTIGQPASISCKSSQSLLNTNGKTYLTWLIQRPGQSPQRLIYLVSKLDSGVPDRFSGSGSGTDFTLKISRVEAEDLGVYYCLQSSHFPFTFGSGTKLEIKR
# Target: T1, SNAP-25206 uncleaved substrate in PC12 cells (rat (PC12 cells), UniProt P60881 1-206)
# T1 construct: also called uncleaved SNAP-25
# Assay: cell-based assay: Western blot of PC12 lysates, ascites 1:100
# T1 sequence (P60881 whole entry): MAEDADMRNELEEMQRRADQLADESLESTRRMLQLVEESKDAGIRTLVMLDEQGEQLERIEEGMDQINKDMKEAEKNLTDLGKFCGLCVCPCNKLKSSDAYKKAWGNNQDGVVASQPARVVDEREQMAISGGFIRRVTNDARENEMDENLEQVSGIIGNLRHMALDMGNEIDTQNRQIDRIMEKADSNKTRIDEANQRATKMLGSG
row,Binder,binding result
1,B1,no binding
2,B2,no binding
3,B3,no binding
